Measured values: US20220411491A1 (Hoffmann-La Roche, published 2022)

Columns and labels:
human GPRC5D [1] = molecular target: T1, human GPRC5D (human, UniProt Q9NZD1 1-345); experiment: cell-based or functional assay
human GPRC5D [2] = molecular target: T1, human GPRC5D; experiment: cell-based or functional assay; remark: listed apart in the source

T1 sequence (Q9NZD1 whole entry): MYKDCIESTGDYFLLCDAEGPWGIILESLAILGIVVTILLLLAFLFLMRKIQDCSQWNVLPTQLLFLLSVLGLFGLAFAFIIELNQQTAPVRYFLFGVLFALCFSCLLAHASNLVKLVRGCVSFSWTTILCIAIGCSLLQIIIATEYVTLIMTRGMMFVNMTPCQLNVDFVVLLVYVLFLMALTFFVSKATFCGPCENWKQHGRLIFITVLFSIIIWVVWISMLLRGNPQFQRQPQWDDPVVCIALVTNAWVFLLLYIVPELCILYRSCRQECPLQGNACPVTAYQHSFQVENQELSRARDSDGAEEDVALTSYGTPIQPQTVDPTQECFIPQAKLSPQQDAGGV

Row | Binder | EC50 of T cell mediated killing, AMO-1 cells (LDH release) (human GPRC5D [1]) [pM] | EC50 of T cell mediated killing, L363 cells (LDH release) (human GPRC5D [1]) [pM] | EC50 of T cell mediated killing, NCI-H929 cells (LDH release) (human GPRC5D [1]) [pM] | EC50 of T cell mediated killing, RPMI-8226 cells (LDH release) (human GPRC5D [1]) [pM] | CAR-J2 EC50 (human GPRC5D [2]) [ng/mL]
1 | ET150-5-TCB (bispecific antibody, human IgG1, lambda, L234A L235A) light 1: QSVLTQPPSASGTPGQRVTISCSGSRSNVGGNYVFWYQQVPGATPKLLIYRSNQRPSGVPDRFAGSKSGSSASLAISGLRSEDEADYYCATWDDSLSGFVFGTGTKVTVLGQPKAAPSVTLFPPSSKKLQANKATLVCLISDFYPGAVTVAWKADSSPVKAGVETTTPSKQSNNKYAASSYLSLTPEQWKSHRSYSCQVTHEGSTVEKTVAPTECS light 2: EVQLLESGGGLVQPGGSLRLSCAASGFTFSTYAMNWVRQAPGKGLEWVSRIRSKYNNYATYYADSVKGRFTISRDDSKNTLYLQMNSLRAEDTAVYYCVRHGNFGNSYVSWFAYWGQGTLVTVSSASVAAPSVFIFPPSDEQLKSGTASVVCLLNNFYPREAKVQWKVDNALQSGNSQESVTEQDSKDSTYSLSSTLTLSKADYEKHKVYACEVTHQGLSSPVTKSFNRGEC heavy 1: EVQLVESGGGLVKPGGSLRLSCAASGFTFSDYYMSWIRQAPGKGLEWVSYISSSGSTIYYADSVKGRFTISRDNAKNSLYLQMNSLRAEDTAVYYCARGYGKAYDQWGQGTLVTVSSASTKGPSVFPLAPSSKSTSGGTAALGCLVEDYFPEPVTVSWNSGALTSGVHTFPAVLQSSGLYSLSSVVTVPSSSLGTQTYICNVNHKPSNTKVDEKVEPKSCDKTHTCPPCPAPEAAGGPSVFLFPPKPKDTLMISRTPEVTCVVVDVSHEDPEVKFNWYVDGVEVHNAKTKPREEQYNSTYRVVSVLTVLHQDWLNGKEYKCKVSNKALGAPIEKTISKAKGQPREPQVCTLPPSRDELTKNQVSLSCAVKGFYPSDIAVEWESNGQPENNYKTTPPVLDSDGSFFLVSKLTVDKSRWQQGNVFSCSVMHEALHNHYTQKSLSLSPGK heavy 2: not shown | 83.5 | 768 | 833 | 797 | –
2 | P1AE5725 (antibody, V domains shown) VH: EVQLLESGGGLVQPGGSLRLSCAASGFTFSKYAMAWVRQAPGKGLEWVASISTGGVNTYYADSVKGRFTISRDNSKNTLYLQMNSLRAEDTAVYYCATHTGDYFDYWGQGTMVTVSS VL: DIQMTQSPSSLSASVGDRVTITCRASQSVSISGINLMNWYQQKPGQQPKLLIYHASILASGVPSRFSGSGSGTDFTLTISSLQPEDFATYYCQQTRESPLTFGQGTRLEIK | – | – | – | – | 10.9
3 | P1AE5731 (antibody, V domains shown) VH: ELQLLESGGGLVQPGGSLRLSCAASGFTFSKYAMAWVRQAPGKGLEWVASISTGGVNTYYADSVKGRFTISRDNAKNTLYLQMNSLRAEDTAVYYCATHTGDYFDYWGQGTMVTVSS VL: DIQMTQSPSSLSASVGDRVTITCRASQSVSISGINLMNWYQQKPGQQPKLLIYHASILASGVPSRFSGSGSGTDFTLTISSLQPEDFATYYCQQTRESPLTFGQGTRLEIK | – | – | – | – | 2.3
4 | P1AE5730 (antibody, V domains shown) VH: ELQLLESGGGLVQPGGSLRLSCAASGFTFSKYAMAWVRQAPGKGLEWVASISTGGVNTYYADSVKGRFTISRDNAKNTLYLQMNSLRAEDTAVYYCATHTGDYFDYWGQGTMVTVSS VL: DIQMTQSPSSLSASVGDRVTITCRASQSVSISGINLMNWYQQKPGKQPKLLIYHASILASGVPSRFSGSGSGTDFTLTISSLQPEDFATYYCQQTRESPLTFGQGTRLEIK | – | – | – | – | 3.5
